T1: Mycobacterium tuberculosis σ^A (co-expressed with RbpA) (M. tuberculosis, UniProt P9WGI1)
T1 sequence: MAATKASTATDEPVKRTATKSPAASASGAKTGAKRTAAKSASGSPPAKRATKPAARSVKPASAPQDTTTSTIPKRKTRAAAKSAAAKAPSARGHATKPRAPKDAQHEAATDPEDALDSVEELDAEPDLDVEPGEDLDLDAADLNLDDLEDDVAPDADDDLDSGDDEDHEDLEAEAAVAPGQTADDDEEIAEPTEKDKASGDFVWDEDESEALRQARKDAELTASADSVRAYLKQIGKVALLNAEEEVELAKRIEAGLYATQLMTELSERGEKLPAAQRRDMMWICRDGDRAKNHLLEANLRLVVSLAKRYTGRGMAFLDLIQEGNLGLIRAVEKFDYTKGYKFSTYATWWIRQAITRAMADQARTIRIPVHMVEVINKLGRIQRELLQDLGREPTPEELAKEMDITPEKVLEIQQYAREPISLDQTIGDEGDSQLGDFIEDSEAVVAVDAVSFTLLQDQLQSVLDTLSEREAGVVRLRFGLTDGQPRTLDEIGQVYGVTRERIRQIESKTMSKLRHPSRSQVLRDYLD

T2: Mycobacterium tuberculosis RNA polymerase β subunit (M. tuberculosis, UniProt P9WGY9 1-1178)
T2 sequence: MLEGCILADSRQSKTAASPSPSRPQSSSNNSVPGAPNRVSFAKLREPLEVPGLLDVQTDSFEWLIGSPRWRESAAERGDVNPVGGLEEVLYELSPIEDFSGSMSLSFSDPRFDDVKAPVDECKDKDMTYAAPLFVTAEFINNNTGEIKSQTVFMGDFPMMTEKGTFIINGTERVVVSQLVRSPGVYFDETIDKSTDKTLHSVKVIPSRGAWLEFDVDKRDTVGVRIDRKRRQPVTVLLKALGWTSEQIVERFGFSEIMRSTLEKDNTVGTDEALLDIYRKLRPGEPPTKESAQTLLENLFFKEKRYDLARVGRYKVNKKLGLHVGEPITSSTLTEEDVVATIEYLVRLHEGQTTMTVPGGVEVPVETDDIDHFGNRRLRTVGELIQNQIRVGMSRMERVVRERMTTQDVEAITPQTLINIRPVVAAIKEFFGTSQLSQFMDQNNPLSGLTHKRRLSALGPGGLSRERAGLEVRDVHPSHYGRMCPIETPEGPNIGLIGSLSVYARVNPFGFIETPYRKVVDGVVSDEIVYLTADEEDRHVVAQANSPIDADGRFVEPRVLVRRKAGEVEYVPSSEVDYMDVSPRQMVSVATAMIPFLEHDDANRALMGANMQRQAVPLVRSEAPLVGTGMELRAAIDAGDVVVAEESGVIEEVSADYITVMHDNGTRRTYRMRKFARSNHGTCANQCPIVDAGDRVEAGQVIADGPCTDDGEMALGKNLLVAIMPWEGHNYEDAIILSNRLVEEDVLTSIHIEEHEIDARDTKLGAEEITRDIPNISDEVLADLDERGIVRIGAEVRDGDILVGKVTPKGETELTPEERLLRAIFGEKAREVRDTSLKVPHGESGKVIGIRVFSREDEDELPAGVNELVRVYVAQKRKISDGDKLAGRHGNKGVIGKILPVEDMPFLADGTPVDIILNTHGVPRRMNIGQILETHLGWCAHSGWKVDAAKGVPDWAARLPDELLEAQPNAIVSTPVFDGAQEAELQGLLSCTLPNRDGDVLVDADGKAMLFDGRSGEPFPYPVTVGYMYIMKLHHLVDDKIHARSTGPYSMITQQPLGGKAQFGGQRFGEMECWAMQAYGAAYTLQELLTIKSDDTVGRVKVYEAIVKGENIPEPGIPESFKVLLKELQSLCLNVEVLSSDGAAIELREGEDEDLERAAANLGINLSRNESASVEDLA

B1: Mycobacterium tuberculosis WhiB7 (6His-WhiB7) (natural protein)
chain: MSVLTVPRQTPRQRLPVLPCHVGDPDLWFADTPAGLEVAKTLCVSCPIRRQCLAAALQRAEPWGVWGGEIFDQGSIVSHKRPRGRPRKDAVA
B2: Mycobacterium tuberculosis RbpA (co-expressed with σ^A) (natural protein)
chain: MADRVLRGSRLGAVSYETDRNHDLAPRQIARYRTDNGEEFEVPFADDAEIPGTWLCRNGMEGTLIEGDLPEPKKVKPPRTHWDMLLERRSIEELEELLKERLELIRSRRRG
B3: Mycobacterium tuberculosis CarD (natural protein)
chain: MIFKVGDTVVYPHHGAALVEAIETRTIKGEQKEYLVLKVAQGDLTVRVPAENAEYVGVRDVVGQEGLDKVFQVLRAPHTEEPTNWSRRYKANLEKLASGDVNKVAEVVRDLWRRDQERGLSAGEKRMLAKARQILVGELALAESTDDAKAETILDEVLAAAS
B4: Mycobacterium tuberculosis σ^A (Strep-tag II-σ^A, co-expressed with WhiB7) (natural protein)
chain: AATKASTATDEPVKRTATKSPAASASGAKTGAKRTAAKSASGSPPAKRATKPAARSVKPASAPQDTTTSTIPKRKTRAAAKSAAAKAPSARGHATKPRAPKDAQHEAATDPEDALDSVEELDAEPDLDVEPGEDLDLDAADLNLDDLEDDVAPDADDDLDSGDDEDHEDLEAEAAVAPGQTADDDEEIAEPTEKDKASGDFVWDEDESEALRQARKDAELTASADSVRAYLKQIGKVALLNAEEEVELAKRIEAGLYATQLMTELSERGEKLPAAQRRDMMWICRDGDRAKNHLLEANLRLVVSLAKRYTGRGMAFLDLIQEGNLGLIRAVEKFDYTKGYKFSTYATWWIRQAITRAMADQARTIRIPVHMVEVINKLGRIQRELLQDLGREPTPEELAKEMDITPEKVLEIQQYAREPISLDQTIGDEGDSQLGDFIEDSEAVVAVDAVSFTLLQDQLQSVLDTLSEREAGVVRLRFGLTDGQPRTLDEIGQVYGVTRERIRQIESKTMSKLRHPSRSQVLRDYLD
B5: Mycobacterium tuberculosis RbpA (expressed alone from pET20b) (natural protein)
chain: B2 chain

Columns and labels:
Assay in all cases: cryo-EM structure
[1] = target: B4
[2] = target: Mycobacterium tuberculosis RNA polymerase β’ subunit (M. tuberculosis, UniProt P9WGY7)
[3] = target: T1, Mycobacterium tuberculosis σ^A …
[4] = target: T2, Mycobacterium tuberculosis RNA …

Binder: B1
- binding result [1]: binds
- binding result [2]: binds

Binder: B2
- binding result [3]: binds

Binder: B3
- binding result [4]: binds

Binder: B4
- binding result [2]: binds
- binding result [4]: binds

Binder: B5
- binding result [1]: binds

Source: paper PMC8311663 (Molecular cell, 2021)
